# Source: patent US20250215083A1 (JIANGSU HENGRUI PHARMACEUTICALS, published 2025)
# Tests used:
# human GPRC5D = target: T1, human GPRC5D (human, UniProt Q9NZD1 1-345); assay: FACS, MM.1R cells
# T1 construct: whole, on cells; also called membrane surface GPRC5D
# Protocol: (§1) To test the capacity of the GPRC5D/CD3 bispecific antibodies of the present disclosure to bind to GPRC5D, a flow cytometry assay was used in this test example to measure the capacity of the GPRC5D/CD3 bispecific antibodies to bind to the human multiple myeloma cell line MM.1R (ATCC® CRL-2975), which expresses GPRC5D, and to a stably transfected cell strain CHOK1-cynoGPRC5D, which expresses cynomolgus monkey GPRC5D. The specific procedure was as follows: The cells described above were cultured in complete culture medium containing 10% FBS, incubated in a 37° C., 5% CO₂ incubator for 2 days, and added to a cell plate at 1×10⁵ cells/well. The plate was centrifuged at 300 g for 5 min and washed once with 1% BSA. The antibodies were serially diluted to 8 concentrations and added to the cell plate at 100 μL/well. The plate was incubated at 4° C. for 1 h and washed once with 1% BSA. […] The plate was washed three times with 1% BSA, PBS was added at 100 μL/well, and plate reading was performed.
# cynomolgus monkey GPRC5D = target: T2, cynomolgus monkey GPRC5D (cynomolgus monkey); assay: FACS, CHOK1-cynoGPRC5D cells
# T2 construct: whole, on cells; also called CynoGPRC5D; cynoGPRC5D
# Protocol: as §1
# T1 sequence (Q9NZD1 whole entry): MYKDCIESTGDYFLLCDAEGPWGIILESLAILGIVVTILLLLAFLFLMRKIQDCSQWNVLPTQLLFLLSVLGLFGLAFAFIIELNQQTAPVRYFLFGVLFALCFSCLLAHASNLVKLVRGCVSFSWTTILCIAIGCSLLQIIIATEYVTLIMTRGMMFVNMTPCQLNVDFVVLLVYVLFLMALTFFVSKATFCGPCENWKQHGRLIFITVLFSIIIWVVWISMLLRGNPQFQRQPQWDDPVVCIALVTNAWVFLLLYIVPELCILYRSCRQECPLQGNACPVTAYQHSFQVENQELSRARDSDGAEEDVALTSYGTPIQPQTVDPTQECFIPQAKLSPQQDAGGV
EC50 (human GPRC5D) [nM],Max (human GPRC5D),EC50 (cynomolgus monkey GPRC5D) [nM],Max (cynomolgus monkey GPRC5D),Binder
1.57,1300,,,"F11-18 (bispecific antibody, formula 11 with Chi-24 variable regions) heavy: not shown light: DVVLTQTPLTLSVTIGQPASISCKSSQSLLHSNGKTYLNWLLQRPGQSPRRLIYLVSKLDSGVPDRFAGSGSGTDFTLKITRVEAEDLGVYYCAQGTHFPRTFGGGSKLEIRRTVAAPSVFIFPPSDEQLKSGTASVVCLLNNFYPREAKVQWKVDNALQSGNSQESVTEQDSKDSTYSLSSTLTLSKADYEKHKVYACEVTHQGLSSPVTKSFNRGEC"
0.46,2100,1.57,7940,"Chi-30 (antibody, human IgG1, kappa, L234A L235A, V domains shown) VH: EVQLQQSGPELVKPGGSMKISCKASGYSFTGYTMNWVKQSHGKNPEWIGLINPYNGGTRNNQKFKDKATLTVDKSSSTAYMELLSLTSEDSAVYYCTRWGLRLAMDYWGQGTSVTVSS VL: DIVMTQSQKFMSTSVGDRVSVTCKASQNVGSNVAWYQQKPGQSPKALIYSASYRYSGVPDRFTGSGSGTDFTLTISNVQSEDLAEYFCHQYNSYPPTFGAGTKLALKR"
2.81,5000,3.96,9630,"Chi-24 (antibody, human IgG1, kappa, L234A L235A, V domains shown) VH: QVQLQQSDAELVKPGGSVKISCKVSGYTFTDYPIHWMKQRPEQGLEWMGYVFPRDGSTKYNEKFRVKATWTADKSSSTVYMQLNSLTSDDSAVYFCSRELTAYWGQGTTLRVSS VL: not shown"
,,0.06,0.26,"JNJ-64407564 (bispecific antibody, human IgG4 S228P, kappa, lambda, F234A L235A, anti-GPRC5D arm and anti-CD3E arm; also called positive control molecule) heavy 1: not shown light 1: DIQMTQSPSSLSASVGDRVTITCKASQNVATHVGWYQQKPGKAPKRLIYSASYRYSGVPSRFSGSGSGTEFTLTISNLQPEDFATYYCQQYNRYPYTFGQGTKLEIKRTVAAPSVFIFPPSDEQLKSGTASVVCLLNNFYPREAKVQWKVDNALQSGNSQESVTEQDSKDSTYSLSSTLTLSKADYEKHKVYACEVTHQGLSSPVTKSFNRGEC heavy 2: EVQLVESGGGLVQPGGSLRLSCAASGFTFNTYAMNWVRQAPGKGLEWVARIRSKYNNYATYYAASVKGRFTISRDDSKNSLYLQMNSLKTEDTAVYYCARHGNFGNSYVSWFAYWGQGTLVTVSSASTKGPSVFPLAPCSRSTSESTAALGCLVKDYFPEPVTVSWNSGALTSGVHTFPAVLQSSGLYSLSSVVTVPSSSLGTKTYTCNVDHKPSNTKVDKRVESKYGPPCPPCPAPEAAGGPSVFLFPPKPKDTLMISRTPEVTCVVVDVSQEDPEVQFNWYVDGVEVHNAKTKPREEQFNSTYRVVSVLTVLHQDWLNGKEYKCKVSNKGLPSSIEKTISKAKGQPREPQVYTLPPSQEEMTKNQVSLTCLVKGFYPSDIAVEWESNGQPENNYKTTPPVLDSDGSFLLYSKLTVDKSRWQEGNVFSCSVMHEALHNHYTQKSLSLSLGK light 2: QTVVTQEPSLTVSPGGTVTLTCRSSTGAVTTSNYANWVQQKPGQAPRGLIGGTNKRAPGTPARFSGSLLGGKAALTLSGVQPEDEAEYYCALWYSNLWVFGGGTKLTVLGQPKAAPSVTLFPPSSEELQANKATLVCLISDFYPGAVTVAWKADSSPVKAGVETTTPSKQSNNKYAASSYLSLTPEQWKSHRSYSCQVTHEGSTVEKTVAPTECS"
1.64,1250,1.91,14600,"Chi-45 (antibody, human IgG1, kappa, L234A L235A, V domains shown) VH: EVKLVESGGGLVQPGDFLSLSCAASGFTFTDYYLSWVRQPPGKALEWLAFIRNRAKGYTTEYSASVKGRFTISRDNSQSILYLQMNVLRAEDSATYYCARMGGKGWHFDVWGTGTTVTVSS VL: DVLMTQSPLSLPVSLGDQASISCRSSQSIVHSNGNTYLEWYLQKPGQSPKLLIYKVSNRFSGVPDRFFGSGSGTDFTLKINRVEAEDLGVYYCFQGSHVPFTFGGGTKLEIKR"
1.43,5210,1.2,7880,"Chi-1 (antibody, human IgG1, kappa, L234A L235A, V domains shown) VH: EVQLVESGGGLVKPGGSLKLSCAASGFTFSDYGMHWVRQAPEKGLEWVAFISSGSSTIYYADTVKGRFTISRDNAKNTLFLQMTSLRSEDTAIYYCTRLGPNWYFDVWGTGTTVTVSS VL: DVVMTQTPLSLSVSLGDQASISCRSSQSLVHSNGNTYLYWYLQKPGQSPKLLIYKVSNRFSGVPDRFSGSGSGTDFTLKISRVEAEDLGVYFCSQSTHVPPLTFGAGTKLELKR"
